Test results from the supplement of paper PMC9112550, “Optimization of the antimicrobial peptide Bac7 by deep mutational scanning” (BMC Biology, 2022).

Tested on: Escherichia coli TOP10
Assay: shrunken log2 fold change of peptide-encoding DNA abundance (4.5 h post-induction vs induction); higher = less antimicrobial activity (less host growth inhibition)
Details: time post-induction: 4.5 h; library: site-saturation at positions 5, 18, 19, 20
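Note: peptides expressed intracellularly from a pBAD plasmid library in pooled LB shake-flask culture, induced with 0.3% L-arabinose, DNA abundance read by NGS, three biological replicates, DESeq2 with apeglm shrinkage.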

Sequence | shrunken log2 fold change
RRIRLRPPRLPRPRPRPERQPRP | 0.0746
RRIRLRPPRLPRPRPRPESEPRP | -0.000997
RRIRLRPPRLPRPRPRPESMPRP | 0.191
RRIRLRPPRLPRPRPRPESVPRP | 0.255
RRIRLRPPRLPRPRPRPETKPRP | 0.00291
RRIRLRPPRLPRPRPRPETWPRP | 0.0117
RRIRLRPPRLPRPRPRPETYPRP | -0.215
RRIRLRPPRLPRPRPRPEVFPRP | 0.0607
RRIRLRPPRLPRPRPRPEVQPRP | 0.0654
RRIRLRPPRLPRPRPRPEWIPRP | 0.00477
RRIRLRPPRLPRPRPRPEWQPRP | -0.0018
RRIRLRPPRLPRPRPRPEYTPRP | -0.0657
RRIRLRPPRLPRPRPRPFAPPRP | 0.263
RRIRLRPPRLPRPRPRPFAQPRP | 0.18
RRIRLRPPRLPRPRPRPFCTPRP | -0.105
RRIRLRPPRLPRPRPRPFDDPRP | -0.00884
RRIRLRPPRLPRPRPRPFDPPRP | -0.352
RRIRLRPPRLPRPRPRPFEEPRP | 0.127
RRIRLRPPRLPRPRPRPFEIPRP | 0.0206
RRIRLRPPRLPRPRPRPFENPRP | -0.388

Sequence | shrunken log2 fold change
RRIRLRPPRLPRPRPRPFEPPRP | 0.00273
RRIRLRPPRLPRPRPRPFFQPRP | 0.152
RRIRLRPPRLPRPRPRPFFVPRP | -0.168
RRIRLRPPRLPRPRPRPFGIPRP | -0.255
RRIRLRPPRLPRPRPRPFGWPRP | 0.0538
RRIRLRPPRLPRPRPRPFHKPRP | -0.54
RRIRLRPPRLPRPRPRPFIFPRP | -0.356
RRIRLRPPRLPRPRPRPFKIPRP | -0.00613
RRIRLRPPRLPRPRPRPFLYPRP | -0.656
RRIRLRPPRLPRPRPRPFNKPRP | -0.324
RRIRLRPPRLPRPRPRPFPPPRP | 0.00271
RRIRLRPPRLPRPRPRPFPSPRP | -0.173
RRIRLRPPRLPRPRPRPFQAPRP | 0.0248
RRIRLRPPRLPRPRPRPFTQPRP | -0.337
RRIRLRPPRLPRPRPRPFTTPRP | 0.0966
RRIRLRPPRLPRPRPRPFTVPRP | 0.0023
RRIRLRPPRLPRPRPRPFWAPRP | 0.0214
RRIRLRPPRLPRPRPRPFWIPRP | -0.283
RRIRLRPPRLPRPRPRPFYYPRP | -0.666
RRIRLRPPRLPRPRPRPGCLPRP | -0.129

Sequence | shrunken log2 fold change
RRIRLRPPRLPRPRPRPGCYPRP | -0.115
RRIRLRPPRLPRPRPRPGDEPRP | 0.114
RRIRLRPPRLPRPRPRPGDHPRP | -0.202
RRIRLRPPRLPRPRPRPGEDPRP | 0.121
RRIRLRPPRLPRPRPRPGFQPRP | -0.0314
RRIRLRPPRLPRPRPRPGHEPRP | -0.0844
RRIRLRPPRLPRPRPRPGHRPRP | -0.114
RRIRLRPPRLPRPRPRPGIHPRP | -0.322
RRIRLRPPRLPRPRPRPGKQPRP | 0.0284
RRIRLRPPRLPRPRPRPGKYPRP | -0.282
RRIRLRPPRLPRPRPRPGMGPRP | 0.241
RRIRLRPPRLPRPRPRPGMRPRP | 0.787
RRIRLRPPRLPRPRPRPGNQPRP | -0.0104
RRIRLRPPRLPRPRPRPGPDPRP | 0.953
RRIRLRPPRLPRPRPRPGQKPRP | -0.00989
RRIRLRPPRLPRPRPRPGQTPRP | 0.277
RRIRLRPPRLPRPRPRPGRTPRP | 0.292
RRIRLRPPRLPRPRPRPGVCPRP | 0.195
RRIRLRPPRLPRPRPRPGVEPRP | 0.0194
RRIRLRPPRLPRPRPRPGVTPRP | 0.0426
